Experimental data as given in US8697369B2, “Method for screening a test substance for activating a receptor associated with FGF 21 activity” (National Institute of Advanced Industrial Science and …, priority 2007, dated 2014).

Columns and labels:
Assay type in all cases: binding
[1] = biological target: T1, FGF receptor subtype R1c (FGFR-Fc) (Homo sapiens, UniProt P11362); test: Co-precipitation of soluble betaKlotho with FGFR-Fc (protein A beads), R1c
T1 construct: adding an immunoglobulin Fc domain to the extracellular domain of an FGF receptor; purchased R&D Systems
T1 sequence (P11362 22-376 limits assumed): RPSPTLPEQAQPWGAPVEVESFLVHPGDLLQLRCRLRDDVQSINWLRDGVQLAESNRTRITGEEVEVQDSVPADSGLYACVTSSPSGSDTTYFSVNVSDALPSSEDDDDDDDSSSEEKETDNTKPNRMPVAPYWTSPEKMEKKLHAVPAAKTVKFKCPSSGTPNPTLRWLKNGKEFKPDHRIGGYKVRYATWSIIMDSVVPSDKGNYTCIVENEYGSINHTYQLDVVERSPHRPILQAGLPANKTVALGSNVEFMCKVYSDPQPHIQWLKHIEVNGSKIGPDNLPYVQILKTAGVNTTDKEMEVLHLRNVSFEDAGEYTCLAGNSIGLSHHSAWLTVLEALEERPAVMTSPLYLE
Experimental: (§1) Moreover, the soluble betaKlotho protein and a fusion protein obtained by adding an immunoglobulin Fc domain to the extracellular domain of an FGF receptor (FGFR-Fc; manufactured by R&D Systems) were incubated, and FGFR-Fc was then precipitated using protein A beads. Whether or not betaKlotho bound to FGFR-Fc and was co-precipitated therewith was analyzed.

[2] = biological target: T2, FGF receptor subtype R2c (FGFR-Fc) (Homo sapiens, UniProt P21802); test: Co-precipitation of soluble betaKlotho with FGFR-Fc (protein A beads), R2c
T2 construct: adding an immunoglobulin Fc domain to the extracellular domain of an FGF receptor; purchased R&D Systems
T2 sequence (P21802 22-377 limits assumed): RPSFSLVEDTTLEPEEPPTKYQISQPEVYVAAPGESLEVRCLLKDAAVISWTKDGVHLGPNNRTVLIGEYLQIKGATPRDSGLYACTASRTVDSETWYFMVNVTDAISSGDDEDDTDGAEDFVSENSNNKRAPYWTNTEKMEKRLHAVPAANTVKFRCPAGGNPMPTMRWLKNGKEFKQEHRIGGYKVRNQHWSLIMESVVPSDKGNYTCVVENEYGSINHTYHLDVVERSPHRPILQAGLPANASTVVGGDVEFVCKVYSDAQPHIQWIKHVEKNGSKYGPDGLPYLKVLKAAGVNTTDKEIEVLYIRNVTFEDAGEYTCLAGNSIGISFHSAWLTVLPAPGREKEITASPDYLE
Experimental: as §1

[3] = biological target: T3, FGF receptor subtype R3c (FGFR-Fc) (Homo sapiens, UniProt P22607); test: Co-precipitation of soluble betaKlotho with FGFR-Fc (protein A beads), R3c
T3 construct: adding an immunoglobulin Fc domain to the extracellular domain of an FGF receptor; purchased R&D Systems
T3 sequence (P22607 23-375 limits assumed): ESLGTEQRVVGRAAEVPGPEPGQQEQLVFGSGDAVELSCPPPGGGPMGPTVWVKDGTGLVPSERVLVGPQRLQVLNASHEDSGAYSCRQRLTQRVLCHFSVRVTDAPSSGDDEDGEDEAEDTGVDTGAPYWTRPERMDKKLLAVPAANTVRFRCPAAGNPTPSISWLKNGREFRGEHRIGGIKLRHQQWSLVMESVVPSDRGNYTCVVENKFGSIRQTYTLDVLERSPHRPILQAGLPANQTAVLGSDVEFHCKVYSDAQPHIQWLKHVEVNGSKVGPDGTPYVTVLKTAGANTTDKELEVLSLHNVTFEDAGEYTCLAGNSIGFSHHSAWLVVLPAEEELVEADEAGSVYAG
Experimental: as §1

[4] = biological target: T4, FGF receptor subtype R4 (FGFR-Fc) (Homo sapiens, UniProt P22455); test: Co-precipitation of soluble betaKlotho with FGFR-Fc (protein A beads), R4
T4 construct: adding an immunoglobulin Fc domain to the extracellular domain of an FGF receptor; purchased R&D Systems
T4 sequence (P22455 22-369 limits assumed): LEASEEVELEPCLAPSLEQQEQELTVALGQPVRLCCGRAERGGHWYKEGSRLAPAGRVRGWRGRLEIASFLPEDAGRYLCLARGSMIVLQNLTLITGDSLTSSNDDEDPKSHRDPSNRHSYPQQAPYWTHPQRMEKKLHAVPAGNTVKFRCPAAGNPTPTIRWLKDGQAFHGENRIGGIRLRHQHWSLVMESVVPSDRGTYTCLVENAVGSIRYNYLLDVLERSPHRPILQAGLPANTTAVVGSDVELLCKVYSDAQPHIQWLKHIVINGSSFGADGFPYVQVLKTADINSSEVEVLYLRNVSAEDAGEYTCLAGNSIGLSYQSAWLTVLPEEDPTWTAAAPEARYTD
Experimental: as §1

co-precipitation (binding) with FGFR-Fc [1]: binds to all of FGF receptor subtypes
co-precipitation (binding) with FGFR-Fc [2]: binds to all of FGF receptor subtypes
co-precipitation (binding) with FGFR-Fc [3]: binds to all of FGF receptor subtypes
co-precipitation (binding) with FGFR-Fc [4]: binds to all of FGF receptor subtypes
Substance: betaKlotho: soluble protein: extracellular domain of betaKlotho with V5 tag and His tag at the C-terminus
